Test results as given in publication doi:10.1101/2025.04.11.648320 (bioRxiv, 2025).
Where “and” joins values, the source holds several entries; their conditions need not be identical. Identical values can stand only once.

Target: the molecule itself
Test: SDS-PAGE with immunoblot

B1: HIR2-HA expressed in Nicotiana benthamiana (natural protein, Arabidopsis thaliana, UniProt Q9SRH6 1-285, looked up)
chain: MGNLFCCVLVKQSDVAVKERFGKFQKVLNPGLQFVPWVIGDYVAGTLTLRLQQLDVQCETKTKDNVFVTVVASIQYRVLADKASDAFYRLSNPTTQIKAYVFDVIRACVPKLNLDDVFEQKNEIAKSVEEELDKAMTAYGYEILQTLIIDIEPDQQVKRAMNEINAAARMRVAASEKAEAEKIIQIKRAEGEAESKYLSGLGIARQRQAIVDGLRDSVLGFAGNVPGTSAKDVLDMVMMTQYFDTMRDIGATSKSSAVFIPHGPGAVSDVAAQIRNGLLQANNAS
  stoichiometry N: 2 and 4 and 6
